Data reported in the Human Domainome abundance scans (Beltran et al. 2025).
± gives the uncertainty stated by the source.

B1: Protein maelstrom homolog, residues 3 to 71; numbered along this chain, Q96JY0 (parent)
chain: NRKASRNAYYFFVQEKIPELRRRGLPVARVADAIPYCSSDWALLREEEKEKYAEMAREWRAAQGKDPGP

Variants of: B1
Experiment: abundance fitness (aPCA) (normalised: wild type 0, dead -1); higher = more abundant; growth selection in yeast, the domain comes from the species named
Conditions: Homo sapiens

S38V and S39H are within error of each other in abundance fitness: 0.073 ± 0.28 for the first, 0.109 ± 0.11 for the second.

Going from S39L to S39G, the abundance fitness rises from -0.137 ± 0.061 to 0.13 ± 0.054.

S39C and S39Q are within error of each other in abundance fitness: -0.174 ± 0.096 for the first, 0 ± 0.086 for the second.

S39P and S39A are within error of each other in abundance fitness: 0.093 ± 0.089 for the first, -0.058 ± 0.065 for the second.

S39E and S39Y are within error of each other in abundance fitness: -0.073 ± 0.097 for the first, 0.041 ± 0.11 for the second.

First: S39V
Second: S39T
The abundance fitness of the first is lower: -0.164 ± 0.074 for the first, 0.132 ± 0.074 for the second.

S39M and S39F are within error of each other in abundance fitness: 0.129 ± 0.074 for the first, -0.016 ± 0.16 for the second.

S39W and S39D are within error of each other in abundance fitness: 0.022 ± 0.067 for the first, 0.07 ± 0.16 for the second.

First: A33G
Second: A33Q
The abundance fitness of the first is higher: -0.098 ± 0.06 for the first, -1.05 ± 0.17 for the second.

A33W and A33F are within error of each other in abundance fitness: -0.665 ± 0.17 for the first, -0.808 ± 0.22 for the second.

A33Y and A33P are within error of each other in abundance fitness: -0.713 ± 0.18 for the first, -0.654 ± 0.14 for the second.

A33H and A33E are within error of each other in abundance fitness: -0.279 ± 0.28 for the first, -0.725 ± 0.2 for the second.

A33D and A33R are within error of each other in abundance fitness: -0.62 ± 0.28 for the first, -0.83 ± 0.083 for the second.

A33L and A33V are within error of each other in abundance fitness: -0.47 ± 0.068 for the first, -0.541 ± 0.078 for the second.

A33K and A33M are within error of each other in abundance fitness: -0.714 ± 0.18 for the first, -0.707 ± 0.1 for the second.

A33C and A33T are within error of each other in abundance fitness: -0.599 ± 0.15 for the first, -0.619 ± 0.11 for the second.

A33S and L44I are within error of each other in abundance fitness: -0.588 ± 0.088 for the first, -0.482 ± 0.21 for the second.

L44T and L44M are within error of each other in abundance fitness: -0.227 ± 0.051 for the first, -0.38 ± 0.13 for the second.

L44A and L44S are within error of each other in abundance fitness: -0.254 ± 0.048 for the first, -0.205 ± 0.067 for the second.

L44G and L44K are within error of each other in abundance fitness: -0.864 ± 0.17 for the first, -0.568 ± 0.28 for the second.

Going from L44H to L44C, the abundance fitness rises from -1 ± 0.32 to -0.343 ± 0.17.

First: L44V
Second: L44D
The abundance fitness of the first is higher: -0.156 ± 0.069 for the first, -0.553 ± 0.23 for the second.

First: L44E
Second: L44P
The abundance fitness of the first is higher: -0.421 ± 0.14 for the first, -0.751 ± 0.14 for the second.

L44F and L44Q are within error of each other in abundance fitness: -0.443 ± 0.18 for the first, -0.168 ± 0.15 for the second.

L44Y and L44R are within error of each other in abundance fitness: -1.09 ± 0.25 for the first, -0.802 ± 0.091 for the second.

E48D and A53Y are within error of each other in abundance fitness: 0.06 ± 0.2 for the first, 0.265 ± 0.44 for the second.

Compared with A53S, A53Q is lower in abundance fitness: 0.082 ± 0.087 for the first, -0.194 ± 0.11 for the second.

A53C and A53V are within error of each other in abundance fitness: 0.043 ± 0.1 for the first, -0.006 ± 0.062 for the second.

Compared with A53E, A53M is lower in abundance fitness: 0.13 ± 0.075 for the first, -0.322 ± 0.1 for the second.

A53K and A53I are within error of each other in abundance fitness: -0.226 ± 0.11 for the first, -0.263 ± 0.22 for the second.

A53T and A53D are within error of each other in abundance fitness: -0.15 ± 0.1 for the first, -0.082 ± 0.24 for the second.

First: A53P
Second: A53N
The abundance fitness of the first is lower: -0.589 ± 0.13 for the first, -0.144 ± 0.21 for the second.

Going from A53R to A53G, the abundance fitness falls from 0.035 ± 0.045 to -0.106 ± 0.052.

A53H and A53W are within error of each other in abundance fitness: 0.037 ± 0.18 for the first, -0.097 ± 0.057 for the second.

E50D and R23H are within error of each other in abundance fitness: -0.232 ± 0.16 for the first, -0.467 ± 0.35 for the second.

Going from A56I to A56N, the abundance fitness rises from -0.539 ± 0.23 to -0.16 ± 0.13.

A56D and A56L are within error of each other in abundance fitness: -0.31 ± 0.097 for the first, -0.296 ± 0.057 for the second.

Compared with A56H, A56K is lower in abundance fitness: -0.087 ± 0.042 for the first, -0.671 ± 0.12 for the second.

Compared with A56C, A56G is lower in abundance fitness: 0.027 ± 0.084 for the first, -0.302 ± 0.045 for the second.

Compared with A56E, A56F is higher in abundance fitness: -0.101 ± 0.071 for the first, 0.124 ± 0.13 for the second.

A42R and A42H are within error of each other in abundance fitness: -0.059 ± 0.051 for the first, -0.03 ± 0.12 for the second.

A42E and A42L are within error of each other in abundance fitness: 0.005 ± 0.075 for the first, -0.082 ± 0.061 for the second.

Going from A42C to A42K, the abundance fitness rises from -0.177 ± 0.07 to 0.016 ± 0.084.

Going from A42M to A42N, the abundance fitness rises from -0.083 ± 0.08 to 0.157 ± 0.11.

A42Q and A42F are within error of each other in abundance fitness: -0.147 ± 0.071 for the first, -0.081 ± 0.12 for the second.

A42Y and A42S are within error of each other in abundance fitness: -0.101 ± 0.1 for the first, 0 ± 0.067 for the second.

A42P and A42I are within error of each other in abundance fitness: -0.326 ± 0.071 for the first, -0.234 ± 0.27 for the second.

A42G and A42D are within error of each other in abundance fitness: 0.058 ± 0.051 for the first, 0.015 ± 0.15 for the second.

A42W and A31Y are within error of each other in abundance fitness: -0.236 ± 0.062 for the first, -0.178 ± 0.17 for the second.

A31V and A31G are within error of each other in abundance fitness: -0.1 ± 0.072 for the first, -0.099 ± 0.062 for the second.

A31W and A31Q are within error of each other in abundance fitness: -0.286 ± 0.082 for the first, -0.21 ± 0.11 for the second.

First: A31R
Second: A31L
The abundance fitness of the first is higher: -0.06 ± 0.058 for the first, -0.291 ± 0.09 for the second.

A31E and A31S are within error of each other in abundance fitness: 0.131 ± 0.093 for the first, -0.047 ± 0.1 for the second.

First: A31I
Second: A31C
The abundance fitness of the first is lower: -0.603 ± 0.27 for the first, 0.085 ± 0.09 for the second.

A31P and A31K are within error of each other in abundance fitness: -0.019 ± 0.15 for the first, 0.161 ± 0.082 for the second.

P35N and P35T are within error of each other in abundance fitness: -0.266 ± 0.2 for the first, -0.554 ± 0.11 for the second.

P35F and P35A are within error of each other in abundance fitness: -0.862 ± 0.48 for the first, -0.435 ± 0.075 for the second.

First: P35Y
Second: P35Q
The abundance fitness of the first is lower: -1.07 ± 0.45 for the first, -0.451 ± 0.098 for the second.

P35K and P35H are within error of each other in abundance fitness: 0.049 ± 0.079 for the first, 0.058 ± 0.28 for the second.

P35M and P35D are within error of each other in abundance fitness: -0.18 ± 0.082 for the first, -0.181 ± 0.16 for the second.

Going from P35G to P35S, the abundance fitness falls from -0.224 ± 0.055 to -0.628 ± 0.1.

P35W and P35L are within error of each other in abundance fitness: -0.756 ± 0.098 for the first, -0.713 ± 0.1 for the second.

Compared with P35V, P35E is higher in abundance fitness: -0.78 ± 0.12 for the first, -0.289 ± 0.1 for the second.

P35I and D32V are within error of each other in abundance fitness: -0.524 ± 0.33 for the first, -0.952 ± 0.12 for the second.

Compared with D32R, D32W is lower in abundance fitness: -0.596 ± 0.1 for the first, -1.07 ± 0.15 for the second.

D32C and D32H are within error of each other in abundance fitness: -0.735 ± 0.27 for the first, -0.535 ± 0.37 for the second.

D32M and D32P are within error of each other in abundance fitness: -0.835 ± 0.17 for the first, -0.959 ± 0.23 for the second.

First: D32E
Second: D32L
The abundance fitness of the first is higher: -0.055 ± 0.099 for the first, -1.05 ± 0.13 for the second.

D32G and D32S are within error of each other in abundance fitness: -0.794 ± 0.084 for the first, -0.817 ± 0.14 for the second.

D32Q and D32F are within error of each other in abundance fitness: -0.616 ± 0.23 for the first, -0.956 ± 0.28 for the second.

Compared with D32A, D32K is lower in abundance fitness: -0.421 ± 0.076 for the first, -0.869 ± 0.24 for the second.

Going from D32T to D32Y, the abundance fitness falls from -0.257 ± 0.2 to -1.09 ± 0.37.

Going from W41P to W41S, the abundance fitness falls from -0.572 ± 0.1 to -0.888 ± 0.069.

W41T and W41M are within error of each other in abundance fitness: -0.682 ± 0.11 for the first, -0.886 ± 0.21 for the second.

First: W41K
Second: W41L
The abundance fitness of the first is higher: -0.622 ± 0.078 for the first, -0.941 ± 0.086 for the second.

W41Q and W41E are within error of each other in abundance fitness: -1.1 ± 0.2 for the first, -0.813 ± 0.1 for the second.

First: W41G
Second: W41F
The abundance fitness of the first is lower: -0.784 ± 0.055 for the first, -0.284 ± 0.17 for the second.

First: W41H
Second: W41V
The abundance fitness of the first is lower: -1.1 ± 0.23 for the first, -0.682 ± 0.071 for the second.

W41I and W41N are within error of each other in abundance fitness: -0.968 ± 0.3 for the first, -0.706 ± 0.19 for the second.

W41R and W41A are within error of each other in abundance fitness: -0.572 ± 0.054 for the first, -0.553 ± 0.075 for the second.

W41Y and A28M are within error of each other in abundance fitness: -0.394 ± 0.14 for the first, -0.319 ± 0.21 for the second.

A28S and K51R are within error of each other in abundance fitness: -0.324 ± 0.31 for the first, -0.378 ± 0.43 for the second.

K51P and P26R are within error of each other in abundance fitness: -0.453 ± 0.46 for the first, -0.431 ± 0.25 for the second.

L25F showed an abundance fitness of -0.229 ± 0.35.
